# Reference: paper PMC5021511 (Methods in cell biology, 2016)
# B1: Cdc11(E294C)-capped and otherwise Cys-less septin heterooctamer, labeled with AF555-maleimide (donor) or AF647-maleimide (acceptor) (complex, S. cerevisiae)
# chain 1: MSGIIDASSALRKRKHLKRGITFTVMIVGQSGSGRSTFINTLFGQQVVDTSTTILLPTDTSTEIDLQLREETVELEDDEGVKIQLNIIDTPGFGDSLDNSPSFEIISDYIRHQYDEILLEESRVRRNPRFKDGRVHAALYLINPTGHGLKEIDVEFIRQLGSLVNIIPVISKSDSLTRDELKLNKKLIMEDIDRWNLPIYNFPFDEDEISDEDYETNMYLRTLLPFAIIGSNEVYEMGGDVGTIRGRKYPWGILDVEDSSISDFVILRNALLISHLHDLKNYTHEILYERYRTCALSGESVAAESIRPNLTKLNGSSSSSTTTRRNTNPFKQSNNINNDVLNPASDMHGQSTGENNETYMTREEQIRLEEERLKAFEERVQQELLLKRQELLQREKELREIEARLEKEAKIKQEE
# chain 2: MSAATATAAPVPPPVGISNLPNQRYKIVNEEGGTFTVMLAGESGLGKTTFINTLFQTVLKRADGQQHRQEPIRKTVEIDITRALLEEKHFELRVNVIDTPGFGDNVNNNKAWQPLVDFIDDQHDSYMRQEQQPYRTKKFDLRVHAVLYFIRPTGHGLKPIDIETMKRLSTRANLIPVIAKADTLTAQELQQFKSRIRQVIEAQEIRIFTPPLDADSKEDAKSGSNPDSAAVEHARQLIEAMPFAIVGSEKKFDNGQGTQVVARKYPWGLVEIENDSHSDFRKLRALLLRTYLLDLISTTQEMHYETYRRLRLEGHENTGEGNEDFTLPAIAPARKLSHNPRYKEEENALKKYFTDQVKAEEQRFRQWEQNIVNERIRLNGDLEEIQGKVKKLEEQVKSLQVKKSHLK
# chain 3: MSLKEEQVSIKQDPEQEERQHDQFNDVQIKQESQDHDGVDSQYTNGTQNDDSERFEAAESDVKVEPGLGMGITSSQSEKGQVLPDQPEIKFIRRQINGYVGFANLPKQWHRRSIKNGFSFNLLVVGPDGIGKTTLMKTLFNNDDIEANLVKDYEEELANDQEEEEGQGEGHENQSQEQRHKVKIKSYESVIEENGVKLNLNVIDTEGFGDFLNNDQKSWDPIIKEIDSRFDQYLDAENKINRHSINDKRIHAVLYFIEPTGHYLKPLDLKFMQSVYEKVNLIPVIAKSDILTDEEILSFKKTIMNQLIQSNIELFKPPIYSNDDAENSHLSERLFSSLPYAVIGSNDIVENYSGNQVRGRSYPWGVIEVDNDNHSDFNLLKNLLIKQFMEELKERTSKILYENYRSSKLAKLGIKQDNSVFKEFDPISKQQEEKTLHEAKLAKLEIEMKTVFQQKVSEKEKKLQKSETELFARHKEMKEKLTKQLKALEDKKKQLELSINSASPNVNHSPVPTKKKGFLR
# chain 4: MDPLSSVQPASYVGFDTITNQIEHRLLKKGFQFNIMVVGQSGLGKSTLINTLFASHLIDSATGDDISALPVTKTTEMKISTHTLVEDRVRLNINVIDTPGFGDFIDNSKAWEPIVKYIKEQHSQYLRKELTAQRERFITDTRVHAILYFLQPNGKELSRLDVEALKRLTEIANVIPVIGKSDTLTLDERTEFRELIQNEFEKYNFKIYPYDSEELTDEELELNRSVRSIIPFAVVGSENEIEINGETFRGRKTRWSAINVEDINQSDFVYLREFLIRTHLQDLIETTSYIHYEGFRARQLIALKENANSRSSAHMSSNAIQR
# modifications: Alexa Fluor 555 maleimide (donor batch) or Alexa Fluor 647 maleimide (acceptor batch) on C294
# Target: the molecule itself
# Assay: FRET or BRET
protein,measurement,value
B1,Kd,24.3 ± 13.7 nM
